In article PMC2186984:

Molecular target: cell-bound C4b (on EAC4 or EAC14 cells) (human) (UniProt P0C0L4)
Assay: radioligand binding

Row | maximum percent of bound 125I-C4-bp released by C2 | Ka | percent of 125I-C4-bp incorporated into the cells | percent of bound C4-bp released in the absence of C2 | stoichiometry N (C4-bp molecules bound per C4b molecule) | Binder
1 | 50% | – | – | – | – | C2 (natural protein) APSCPQNVNISGGTFTLSHGWAPGSLLTYSCPQGLYPSPASRLCKSSGQWQTPGATRSLSKAVCKPVRCPAPVSFENGIYTPRLGSYPVGGNVSFECEDGFILRGSPVRQCRPNGMWDGETAVCDNGAGHCPNPGISLGAVRTGFRFGHGDKVRYRCSSNLVLTGSSERECQGNGVWSGTEPICRQPYSYDFPEDVAPALGTSFSHMLGATNPTQKTKESLGRKIQIQRSGHLNLYLLLDCSQSVSENDFLIFKESASLMVDRIFSFEINVSVAIITFASEPKVLMSVLNDNSRDMTEVISSLENANYKDHENGTGTNTYAALNSVYLMMNNQMRLLGMETMAWQEIRHAIILLTDGKSNMGGSPKTAVDHIREILNINQKRNDYLDIYAIGVGKLDVDWRELNELGSKKDGERHAFILQDTKALHQVFEHMLDVSKLTDTICGVGNMSANASDQERTPWHVTIKPKSQETCRGALISDQWVLTAAHCFRDGNDHSLWRVNVGDPKSQWGKEFLIEKAVISPGFDVFAKKNQGILEFYGDDIALLKLAQKVKMSTHARPICLPCTMEANLALRRPQGSTCRDHENELLNKQSVPAHFVALNGSKLNINLKMGVEWTSCAEVVSQEKTMFPNLTDVREVVTDQFLCSGTQEDESPCKGESGGAVFLERRFRFFQVGLVSWGLYNPCLGSADKNSRKRAPRSKVPPPRDFHINLFRMQPWLRQHLGDVLNFLPL
2 | – | 4.6e+08 M⁻¹ | 10.5% | 8% | 0.43 | radiolabelled C4-binding protein (125I-C4-bp or 131I-C4-bp) (natural protein, 125I or 131I label (iodinated by means of Enzymobeads)) NCGPPPTLSFAAPMDITLTETRFKTGTTLKYTCLPGYVRSHSTQTLTCNSDGEWVYNTFCIYKRCRHPGELRNGQVEIKTDLSFGSQIEFSCSEGFFLIGSTTSRCEVQDRGVGWSHPLPQCEIVKCKPPPDIRNGRHSGEENFYAYGFSVTYSCDPRFSLLGHASISCTVENETIGVWRPSPPTCEKITCRKPDVSHGEMVSGFGPIYNYKDTIVFKCQKGFVLRGSSVIHCDADSKWNPSPPACEPNSCINLPDIPHASWETYPRPTKEDVYVVGTVLRYRCHPGYKPTTDEPTTVICQKNLRWTPYQGCEALCCPEPKLNNGEITQHRKSRPANHCVYFYGDEISFSCHETSRFSAICQGDGTWSPRTPSCGDICNFPPKIAHGHYKQSSSYSFFKEEIIYECDKGYILVGQAKLSCSYSHWSAPAPQCKALCRKPELVNGRLSVDKDQYVEPENVTIQCDSGYGVVGPQSITCSGNRTWYPEVPKCEWETPEGCEQVLTGKRLMQCLPNPEDVKMALEVYKLSLEIEQLELQRDSARQSTLDKEL
